Patent US20190233475A1 (Bicycle, published 2019)
*1 amine or outer side, *2 acyl side, *3 side chain or, on linkers, in order; H or OH if unused. Bridges are numbered along the chain shown (N, C = ends). Where no end group is shown, it is not given here. [ ]: non-standard residue; d: D form. TBMB = c1c(C[*:1])cc(C[*:3])cc1C[*:2]; hArg = N=C(N)NCCCC[C@H](N)C(=O)O; Aze = O=C(O)[C@@H]1CCN1; Sar = CNCC(=O)O

B1: 06-259-02 (peptide)
peptide: ACNTWNPWCPWDAPLCA-NH2
modifications: linker 2-9-16 via TBMB
notes: Synthetic bicyclic peptide, 6 x 6, made on Rink amide resin
B2: 06-254 (peptide)
peptide: ACKNYWNPCDLVTISCA-NH2
modifications: linker 2-9-16 via TBMB; N-terminus assumed
SMILES: CC[C@H](C)[C@@H]1NC(=O)[C@H]([C@@H](C)O)NC(=O)[C@H](C(C)C)NC(=O)[C@H](CC(C)C)NC(=O)[C@H](CC(=O)O)NC(=O)[C@@H]2CSCc3cc(cc(c3)CSC[C@@H](C(=O)N[C@@H](C)C(N)=O)NC(=O)[C@H](CO)NC1=O)CSC[C@H](NC(=O)[C@H](C)N)C(=O)N[C@@H](CCCCN)C(=O)N[C@@H](CC(N)=O)C(=O)N[C@@H](Cc1ccc(O)cc1)C(=O)N[C@@H](Cc1c[nH]c3ccccc13)C(=O)N[C@@H](CC(N)=O)C(=O)N1CCC[C@H]1C(=O)N2
notes: as for B1
B3: 06-261 (peptide)
peptide: ACNNFPFRCVYYPDICA-NH2
modifications: linker 2-9-16 via TBMB
notes: as for B1
B4: 06-258 (peptide)
peptide: ACPYPFRCLHENLCA-NH2
modifications: linker 2-8-14 via TBMB
notes: Synthetic bicyclic peptide, 5 x 5, made on Rink amide resin
B5: 06-256 (peptide)
peptide: ACQKFESRCRVDTRYCA-NH2
modifications: linker 2-9-16 via TBMB
notes: as for B1
B6: 06-255 (peptide)
peptide: ACRNYWNPCTLINITCA-NH2
modifications: linker 2-9-16 via TBMB
notes: as for B1
B7: 06-259-04 (peptide)
peptide: ACNYWNPWCPWDAPLCA-NH2
modifications: linker 2-9-16 via TBMB
notes: as for B1
B8: 06-257 (peptide)
peptide: ACPLSDTLCYRRMPPCA-NH2
modifications: linker 2-9-16 via TBMB
notes: as for B1
B9: 06-259-01 (peptide)
peptide: ACNHWNPWCSVEPPVCA-NH2
modifications: linker 2-9-16 via TBMB
notes: as for B1
B10: 06-259-03 (peptide)
peptide: ACNHWNPWCSADPPICA-NH2
modifications: linker 2-9-16 via TBMB
notes: as for B1
B11: 06-259 (peptide)
peptide: ACNTWNPWCGWVGGFCA-NH2
modifications: linker 2-9-16 via TBMB
notes: as for B1
B12: 06-254-02 (peptide)
peptide: ACKNYWNPCDLIPGPCA-NH2
modifications: linker 2-9-16 via TBMB; N-terminus assumed
SMILES: CC[C@H](C)[C@@H]1NC(=O)[C@H](CC(C)C)NC(=O)[C@H](CC(=O)O)NC(=O)[C@@H]2CSCc3cc(cc(c3)CSC[C@@H](C(=O)N[C@@H](C)C(N)=O)NC(=O)[C@@H]3CCCN3C(=O)CNC(=O)[C@@H]3CCCN3C1=O)CSC[C@H](NC(=O)[C@H](C)N)C(=O)N[C@@H](CCCCN)C(=O)N[C@@H](CC(N)=O)C(=O)N[C@@H](Cc1ccc(O)cc1)C(=O)N[C@@H](Cc1c[nH]c3ccccc13)C(=O)N[C@@H](CC(N)=O)C(=O)N1CCC[C@H]1C(=O)N2
notes: as for B1
B13: 06-254-03 (peptide)
peptide: ACKNYWNPCDLVMDTCA-NH2
modifications: linker 2-9-16 via TBMB; N-terminus assumed
SMILES: CSCC[C@@H]1NC(=O)[C@H](C(C)C)NC(=O)[C@H](CC(C)C)NC(=O)[C@H](CC(=O)O)NC(=O)[C@@H]2CSCc3cc(cc(c3)CSC[C@@H](C(=O)N[C@@H](C)C(N)=O)NC(=O)[C@H]([C@@H](C)O)NC(=O)[C@H](CC(=O)O)NC1=O)CSC[C@H](NC(=O)[C@H](C)N)C(=O)N[C@@H](CCCCN)C(=O)N[C@@H](CC(N)=O)C(=O)N[C@@H](Cc1ccc(O)cc1)C(=O)N[C@@H](Cc1c[nH]c3ccccc13)C(=O)N[C@@H](CC(N)=O)C(=O)N1CCC[C@H]1C(=O)N2
notes: as for B1
B14: Ac-(06-259-02)-Sar3-(DArg2) (peptide)
peptide: Ac-CNTWNPWCPWDAPLCA[Sar][Sar][Sar][dR][dR]-NH2
modifications: linker 1-8-15 via TBMB
SMILES: CC(=O)N[C@H]1CSCc2cc3cc(c2)CSC[C@H](NC(=O)[C@H](Cc2c[nH]c4ccccc24)NC(=O)[C@@H]2CCCN2C(=O)[C@H](CC(N)=O)NC(=O)[C@H](Cc2c[nH]c4ccccc24)NC(=O)[C@H]([C@@H](C)O)NC(=O)[C@H](CC(N)=O)NC1=O)C(=O)N1CCC[C@H]1C(=O)N[C@@H](Cc1c[nH]c2ccccc12)C(=O)N[C@@H](CC(=O)O)C(=O)N[C@@H](C)C(=O)N1CCC[C@H]1C(=O)N[C@@H](CC(C)C)C(=O)N[C@H](C(=O)N[C@@H](C)C(=O)N(C)CC(=O)N(C)CC(=O)N(C)CC(=O)N[C@H](CCCNC(=N)N)C(=O)N[C@H](CCCNC(=N)N)C(N)=O)CSC3
notes: Synthetic bicyclic peptide with solubilising extension, made on Rink amide resin; also called Bicycle 3
B15: Ac-(06-255) (peptide)
peptide: Ac-CRNYWNPCTLINITC-NH2
modifications: linker 1-8-15 via TBMB
notes: Synthetic bicyclic peptide without the terminal alanines, made on Rink amide resin
B16: Ac-(06-255)-Sar3-(DArg2) (peptide)
peptide: Ac-CRNYWNPCTLINITCA[Sar][Sar][Sar][dR][dR]-NH2
modifications: linker 1-8-15 via TBMB
SMILES: CC[C@H](C)[C@@H]1NC(=O)[C@H](CC(C)C)NC(=O)[C@H]([C@@H](C)O)NC(=O)[C@@H]2CSCc3cc(cc(c3)CSC[C@@H](C(=O)N[C@@H](C)C(=O)N(C)CC(=O)N(C)CC(=O)N(C)CC(=O)N[C@H](CCCNC(=N)N)C(=O)N[C@H](CCCNC(=N)N)C(N)=O)NC(=O)[C@H]([C@@H](C)O)NC(=O)[C@H]([C@@H](C)CC)NC(=O)[C@H](CC(N)=O)NC1=O)CSC[C@H](NC(C)=O)C(=O)N[C@@H](CCCNC(=N)N)C(=O)N[C@@H](CC(N)=O)C(=O)N[C@@H](Cc1ccc(O)cc1)C(=O)N[C@@H](Cc1c[nH]c3ccccc13)C(=O)N[C@@H](CC(N)=O)C(=O)N1CCC[C@H]1C(=O)N2
notes: Synthetic bicyclic peptide with solubilising extension, made on Rink amide resin
B17: Ac-(06-550)-Sar3-(DArg2) (peptide)
peptide: Ac-CSFPYRCVYYPDICA[Sar][Sar][Sar][dR][dR]-NH2
modifications: linker 1-7-14 via TBMB
notes: Synthetic bicyclic peptide, 5 x 6, made on Rink amide resin
B18: Ac-(06-550)-Sar3-(DArg2) Aze3HArg5 (peptide)
peptide: Ac-CSF[Aze]Y[hArg]CVYYPDICA[Sar][Sar][Sar][dR][dR]-NH2
modifications: linker 1-7-14 via TBMB
notes: Synthetic bicyclic peptide, 5 x 6, made on Rink amide resin; also called Bicycle 1

Biological target: T1, rabbit plasma kallikrein (rabbit, UniProt G1T127 20-390; G1T127 391-629, The active enzyme is two chains, heavy and catalytic light, joined by a disulfide after cleavage at Arg390-Ile391. The letters do not carry the natural glycosylation.)
T1 construct: also called rabbit kallikrein
Assay: enzyme inhibition assay, fluorogenic substrate Z-PheArg-AMC
Protocol: (§1) Functional enzyme assays were conducted in 10 mM Tris HCl, 150 mM NaCl, 10 mM MgCl₂, 1 mM CaCl₂ and 1 mg/mL BSA (all Sigma UK) pH 7.4 at 25° C. in solid black 96 or 384 well plates. […] Release of AMC was measured using a Pherastar FS (BMG Labtech), excitation 360 nm, emission 460 nm. The rate of the linear phase of the reaction, typically 5 to 45 minutes, was calculated in MARS data analysis software (BMG labtech). The rate was then used to calculate the IC₅₀ and Kᵢ in Prism (GraphPad). A four parameter inhibition non-linear regression equation was used to calculate the IC₅₀. The One site-fit Kᵢ equation used to calculate the Kᵢ, constraining the Kᵢ to the Kₘ for the substrate which is 150 μM for the human enzyme, and 200 μM for the rat orthologue. All Kᵢ/IC₅₀ values are the mean of at least two independent experiments, and at least three for peptides with Kᵢ values lower than 1 nM. For rabbit kallikrein, between 7 to 14 pM enzyme was employed, with 33 μM substrate with a Kₘ of 50 μM.

T1 sequence (heavy, as listed by the source limits assumed, form in doubt, chain 1 of 2): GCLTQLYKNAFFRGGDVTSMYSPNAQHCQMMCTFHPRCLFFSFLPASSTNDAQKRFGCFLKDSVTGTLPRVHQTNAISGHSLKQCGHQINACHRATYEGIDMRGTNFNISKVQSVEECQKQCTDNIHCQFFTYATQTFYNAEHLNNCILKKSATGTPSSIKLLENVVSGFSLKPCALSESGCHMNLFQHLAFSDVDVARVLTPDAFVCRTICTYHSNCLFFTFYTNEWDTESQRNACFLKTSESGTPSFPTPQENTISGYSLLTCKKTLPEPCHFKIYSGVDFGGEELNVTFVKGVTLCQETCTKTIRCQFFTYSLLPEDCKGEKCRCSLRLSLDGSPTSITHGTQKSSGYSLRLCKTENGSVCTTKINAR
T1 sequence (light, as listed by the source limits assumed, form in doubt, chain 2 of 2): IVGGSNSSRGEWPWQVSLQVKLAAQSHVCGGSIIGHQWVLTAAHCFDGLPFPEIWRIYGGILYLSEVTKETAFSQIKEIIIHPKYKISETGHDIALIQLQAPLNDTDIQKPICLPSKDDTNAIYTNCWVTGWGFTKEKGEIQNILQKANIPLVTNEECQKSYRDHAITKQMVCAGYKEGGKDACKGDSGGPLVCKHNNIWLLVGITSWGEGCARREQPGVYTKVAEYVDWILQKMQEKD

| Binder | Ki |
| --- | --- |
| B1 | 1450 nM |
| B2 | 280 nM |
| B3 | 1040 nM |
| B4 | 331 nM |
| B5 | 1460 nM |
| B6 | 342 nM |

Biological target: T2, rat plasma kallikrein (rat, UniProt P14272 391-638)
T2 construct: domain: catalytic domain; Expressed and purified in house; also called rat kallikrein; rPK
Assay: as above
Protocol: as §1

T2 sequence (P14272 391-638 limits assumed): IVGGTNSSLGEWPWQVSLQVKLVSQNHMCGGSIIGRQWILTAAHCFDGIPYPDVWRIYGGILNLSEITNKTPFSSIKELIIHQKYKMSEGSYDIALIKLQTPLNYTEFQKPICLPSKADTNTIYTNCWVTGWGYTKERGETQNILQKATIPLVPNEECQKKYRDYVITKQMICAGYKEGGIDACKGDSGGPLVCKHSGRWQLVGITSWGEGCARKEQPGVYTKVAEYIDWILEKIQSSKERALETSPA

| Binder | Ki |
| --- | --- |
| B1 | 0.2 nM |
| B7 | 6.7 nM |
| B8 | 159 nM |
| B2 | 42.5 nM |
| B9 | 10.4 nM |
| B3 | 4 nM |
| B10 | 8.2 nM |
| B11 | 6.2 nM |
| B12 | 7.6 nM |
| B4 | 5.2 nM |
| B5 | 2780 nM |
| B13 | 10.1 nM |
| B6 | 18.9 nM |

Biological target: T3, human plasma kallikrein (human, UniProt P03952 20-638)
T3 construct: Enzyme used in the Ki assays; also called human kallikrein; PK
Assay: as above
Protocol: as §1

T3 sequence (P03952 20-638 limits assumed): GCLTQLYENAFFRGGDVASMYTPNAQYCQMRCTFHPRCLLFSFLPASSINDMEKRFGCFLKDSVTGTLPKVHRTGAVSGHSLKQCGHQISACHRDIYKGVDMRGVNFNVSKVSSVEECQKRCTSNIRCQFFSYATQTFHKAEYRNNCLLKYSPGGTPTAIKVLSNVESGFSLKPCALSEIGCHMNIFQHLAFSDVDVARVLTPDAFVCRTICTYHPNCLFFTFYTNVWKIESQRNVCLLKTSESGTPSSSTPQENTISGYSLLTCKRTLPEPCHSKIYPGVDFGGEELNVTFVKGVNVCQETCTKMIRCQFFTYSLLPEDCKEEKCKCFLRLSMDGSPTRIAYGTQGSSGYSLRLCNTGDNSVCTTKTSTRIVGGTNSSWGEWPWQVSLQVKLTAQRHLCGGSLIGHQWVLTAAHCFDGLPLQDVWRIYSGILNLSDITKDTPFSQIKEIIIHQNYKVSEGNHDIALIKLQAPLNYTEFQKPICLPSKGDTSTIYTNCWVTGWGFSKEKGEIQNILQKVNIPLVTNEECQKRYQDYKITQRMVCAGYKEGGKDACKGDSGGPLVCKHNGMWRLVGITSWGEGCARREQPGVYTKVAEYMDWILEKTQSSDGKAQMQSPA

| Binder | Ki |
| --- | --- |
| B1 | 2.3 nM |
| B7 | 3.4 nM |
| B8 | 36.1 nM |
| B2 | 5.3 nM |
| B9 | 2.4 nM |
| B3 | 0.4 nM |
| B10 | 1.4 nM |
| B11 | 20.1 nM |
| B12 | 0.5 nM |
| B4 | 4.3 nM |
| B5 | 6.6 nM |
| B13 | 1.4 nM |
| B6 | 3.4 nM |

Biological target: T1, rabbit plasma kallikrein
Assay: as above
Remark: another data set of the same source
Protocol: as §1

| Binder | Ki |
| --- | --- |
| B14 | 1450 nM |
| B15 | 342 nM |
| B16 | 251 nM |
| B2 | 280 nM |
| B3 | 1040 nM |
| B17 | 207 nM |
| B18 | 2650 nM |
| Ac-CSFPYRCVYYPDIC-NH2 (linker 1-7-14 via TBMB) [Ac-(06-550)] | 610 nM |
| B4 | 331 nM |
| B5 | 1460 nM |
| B6 | 342 nM |

Biological target: T2, rat plasma kallikrein
Assay: as above
Remark: another data set of the same source
Protocol: as §1

| Binder | Ki |
| --- | --- |
| B14 | 2.1 nM |
| B15 | 7.7 nM |
| B8 | 159 nM |
| B16 | 7.4 nM |
| B2 | 42.5 nM |
| B3 | 4 nM |
| B17 | 24 nM |
| B11 | 6.2 nM |
| B18 | 8.2 nM |
| Ac-CSFPYRCVYYPDIC-NH2 (linker 1-7-14 via TBMB) [Ac-(06-550)] | 9.3 nM |
| B4 | 5.2 nM |
| B5 | 2780 nM |
| B6 | 18.9 nM |

Biological target: T3, human plasma kallikrein
Assay: as above
Remark: another data set of the same source
Protocol: as §1

| Binder | Ki |
| --- | --- |
| B14 | 0.8 nM |
| B15 | 3.7 nM |
| B8 | 36.1 nM |
| B16 | 1.2 nM |
| B2 | 5.3 nM |
| B3 | 0.4 nM |
| B17 | 2.1 nM |
| B11 | 20.1 nM |
| B18 | 0.4 nM |
| Ac-CSFPYRCVYYPDIC-NH2 (linker 1-7-14 via TBMB) [Ac-(06-550)] | 0.9 nM |
| B4 | 4.3 nM |
| B5 | 6.6 nM |
| B6 | 3.4 nM |
